# Data published in PMC4463452, “Olfactomedin-1 Has a V-shaped Disulfide-linked Tetrameric Structure*^([image sbox.jpg])” (The Journal of Biological Chemistry, 2015).
# B1: full-length Olfm1 (mouse olfactomedin-1, isoform 1, residues 17-478) (natural protein, UniProt O88998 17-478, looked up)
# chain: MITNWMSQTLPSLVGLNTTRLSAASGGTLDRSTGVLPTNPEESWQVYSSAQDSEGRCICTVVAPQQTMCSRDARTKQLRQLLEKVQNMSQSIEVLDRRTQRDLQYVEKMENQMKGLETKFKQVEESHKQHLARQFKAIKAKMDELRPLIPVLEEYKADAKLVLQFKEEVQNLTSVLNELQEEIGAYDYDELQSRVSNLEERLRACMQKLACGKLTGISDPVTVKTSGSRFGSWMTDPLAPEGDNRVWYMDGYHNNRFVREYKSMVDFMNTDNFTSHRLPHPWSGTGQVVYNGSIYFNKFQSHIIIRFDLKTEAILKTRSLDYAGYNNMYHYAWGGHSDIDLMVDENGLWAVYATNQNAGNIVISKLDPVSLQILQTWNTSYPKRSAGEAFIICGTLYVTNGYSGGTKVHYAYQTNASTYEYIDIPFQNKYSHISMLDYNPKDRALYAWNNGHQTLYNVTLFH
# modifications: N-linked glycans (eight predicted); interprotein disulfides
# notes: the C-terminal VIRSDEL segment is not included; the native signal peptide is replaced by an N-terminal cystatin secretion signal of the vector pUPE107.03; also called noelin; pancortin; source: N-acetylglucosaminyltransferase I-deficient, EBNA1-expressing HEK293 cells, transient expression, secreted; purified (nickel-nitrilotriacetic acid, Superdex200 gel filtration); also unpurified in …
# Biological target: the molecule itself
# Assay: SEC-MALS; analytical Superdex200 5/150, room temperature, GF buffer (150 mM NaCl, 20 mM HEPES, pH 7.5); oligomeric state of the disulfide-linked assembly
protein,measurement,value
B1,stoichiometry N,4
